The test deals with Fc protein. Put plainly: ELISA, Fc protein coated, 10 ng VHH/well. On the technique in general: An ELISA detects its analyte on a solid surface through an enzyme-linked reagent.

B1: CTLA4 heavy chain single domain antibody No. J38 (VHH)
VHH: QVQLQESGGGSVQAGGSLRLSCAPSRYSGALMGWFRQAPGKEREGVAVISRSGLTTYYADSVKGRFTISQDTAKNTIYLQMNSMKPEDTAMYYCVAGWHVGGTWSETSSYDYWGQGTQVTVSS
The molecule B1 returned an OD (against Fc) of 0.752 OD405.

B2: CTLA4 heavy chain single domain antibody No. 188 (VHH)
VHH: QVQLQESGGGSVQAGGSLRLSCAASGYTYSSVCMGWFRQALGKEREAVVGIDGDGITMYANSVKGRFTISKDNAKNTLYLQMNSLKPEDTAMYYCASGGGQGDGSCALTYWGQGTQVTVSS
The molecule B2 gave an OD (against Fc) of 1.02 OD405.
